Source: article doi:10.1101/2024.05.17.594765

B1: C-terminally Halo-tagged full-length zyxin (zyxin-Halo) [modified: Janelia Fluor 646 Halo-ligand conjugated to the Halo tag; Janelia Fluor 646 Halo-ligand conjugated to the Halo tag] [human] / C-terminally … (parent)
chain 1: MSETVICSSRATVMLYDDGNKRWLPAGTGPQAFSRVQIYHNPTANSFRVVGRKMQPDQQVVINCAIVRGVKYNQATPNFHQWRDARQVWGLNFGSKEDAAQFAAGMASALEALEGGGPPPPPALPTWSVPNGPSPEEVEQQKRQQPGPSEHIERRVSNAGGPPAPPAGGPPPPPGPPPPPGPPPPPGLPPSGVPAAAHGAGGGPPPAPPLPAAQGPGGGGAGAPGLAAAIAGAKLRKVSKQEEASGGPTAPKAESGRSGGGGLMEEMNAMLARRRKATQVGEKTPKDESANQEEPEARVPAQSESVRRPWEKNSTTLPRMKSSSSVTTSETQPCTPSSSDYSDLQRVKQELLEEVKKELQKVKEEIIEAFVQELRKRGSP
chain 2: MAAPRPSPAISVSVSAPAFYAPQKKFGPVVAPKPKVNPFRPGDSEPPPAPGAQRAQMGRVGEIPPPPPEDFPLPPPPLAGDGDDAEGALGGAFPPPPPPIEESFPPAPLEEEIFPSPPPPPEEEGGPEAPIPPPPQPREKVSSIDLEIDSLSSLLDDMTKNDPFKARVSSGYVPPPVATPFSSKSSTKPAAGGTAPLPPWKSPSSSQPLPQVPAPAQSQTQFHVQPQPQPKPQVQLHVQSQTQPVSLANTQPRGPPASSPAPAPKFSPVTPKFTPVASKFSPGAPGGSGSQPNQKLGHPEALSAGTGSPQPPSFTYAQQREKPRVQEKQHPVPPPAQNQNQVRSPGAPGPLTLKEVEELEQLTQQLMQDMEHPQRQNVAVNELCGRCHQPLARAQPAVRALGQLFHIACFTCHQCAQQLQGQQFYSLEGAPYCEGCYTDTLEKCNTCGEPITDRMLRATGKAYHPHCFTCVVCARPLEGTSFIVDQANRPHCVPDYHKQYAPRCSVCSEPIMPEPGRDETVRVVALDKNFHMKCYKCEDCGKPLSIEADDNGCFPLDGHVLCRKCHTARAQT

Variants of: B1
Assay: force reconstitution TIRF assay
Settings: with C-terminally Halo-tagged VASP (VASP-Halo) [modified: Janelia Fluor 549 Halo-ligand conjugated to the Halo tag, images were acquired every 1 s, read off a plot

Row | screen value | Variant
1 | 38 | chain 2 F71A F93A F104A F114A

Variants of: B1
Assay: force reconstitution TIRF assay
Settings: with C-terminally Halo-tagged VASP (VASP-Halo) [modified: Janelia Fluor 549 Halo-ligand conjugated to the Halo tag, images were acquired every 1 s, read off a plot
Remark: another data set of the same source

Row | screen value | Variant
2 | 2.6 s | chain 2 F71A F93A F104A F114A
